From the RNAGym collection of RNA variant scans (doi:10.1093/molbev/msab373)

B1: Azoarcus group I ribozyme (parent)
chain: GUGCCUUGCGCCGGGAAACCACGCAAGGGAUGGUGUCAAAUUCGGCGAAACCUAAGCGCCCGCCCGGGCGUAUGGCAACGCCGAGCCAAGCUUCGGCGCCUGCGCCGAUGAAGGUGUAGAGACUAGACGGCACCCACCUAAGGCAAACGCUAUGGUGAAGGCAUAGUCCAGGGAGUGGCGAAAGUCACACAAACCGG

Variants of: B1
Test: reverse-splicing fitness (ratio to wild type); higher = more active; in vitro selection; Mg2+ level not given
Summary of the method: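 An in vitro group I ribozyme library with randomized positions was T7-transcribed and gel-purified. In triplicate, 10 pmol RNA in EPPS pH 7.5 was reacted with 50 pmoles of a 30-nt RNA substrate for 1 h at 37 °C across several added MgCl2 levels (1–48 mM), then stopped with EDTA. Products were reverse transcribed from a substrate-complementary primer, PCR-amplified and sequenced (HiSeq 4000). Fitness is a variant's read proportion after selection over that before, normalised to wild type.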

Row | Variant | reverse-splicing fitness
1 | GUGCCUUGCGCCGGGAAACCACGCAAGGGAUGGUGUCAAAUUCGGCGAAACCUAAGCGCCCGCCCGGGCGUAUGGCAACGCAGAGCCAAGCUUCGGCGCCUGCGCCGAUGUAGGUGUAGGGACUAGACGGCACCCACCUAAGGCAAACGUUAUGGUGAAGGCAUAGUCGAGGGAGCGGCGAAAGUCACACAAACCGG | 0.0205
2 | GUGCCUUGCGCCGGGAAACCACGCAAGGGAUGGUGUCAAAUUCGGCGAAACCUAAGCGCCCGCCCGGGCGUAUGGCAACGCAGAGCCAAGCUUCGGCGCCUGCGCCGAUGUAGGUGUAGGGACUAGACGGCACCCACCUAAGGCAAACGUUAUGGUGAAGGCAUAGUCGAGGGAGAGGCGAAAGUCACACAAACCGG | 0.0175
3 | GUGCCUUGCGCCGGGAAACCACGCAAGGGAUGGUGUCAAAUUCGGCGAAACCUAAGCGCCCGCCCGGGCGUAUGGCAACGCAGAGCCAAGCUUCGGCGCCUGCGCCGAUGUAGGUGUAGGGACUAGACGGCACCCACCUAAGGCAAACGUUAUGGUGAAGGCAUAGUCGAGGGAGGGGCGAAAGUCACACAAACCGG | 0.00517
4 | GUGCCUUGCGCCGGGAAACCACGCAAGGGAUGGUGUCAAAUUCGGCGAAACCUAAGCGCCCGCCCGGGCGUAUGGCAACGCAGAGCCAAGCUUCGGCGCCUGCGCCGAUGUAGGUGUAGGGACUAGACGGCACCCACCUAAGGCAAACGCUAUGGUGAAGGCAUAGUCUAGGGAGCGGCGAAAGUCACACAAACCGG | 0.0195
5 | GUGCCUUGCGCCGGGAAACCACGCAAGGGAUGGUGUCAAAUUCGGCGAAACCUAAGCGCCCGCCCGGGCGUAUGGCAACGCAGAGCCAAGCUUCGGCGCCUGCGCCGAUGUAGGUGUAGGGACUAGACGGCACCCACCUAAGGCAAACGCUAUGGUGAAGGCAUAGUCUAGGGAGGGGCGAAAGUCACACAAACCGG | 0.00615
6 | GUGCCUUGCGCCGGGAAACCACGCAAGGGAUGGUGUCAAAUUCGGCGAAACCUAAGCGCCCGCCCGGGCGUAUGGCAACGCAGAGCCAAGCUUCGGCGCCUGCGCCGAUGUAGGUGUAGGGACUAGACGGCACCCACCUAAGGCAAACGCUAUGGUGAAGGCAUAGUCUAGGGAGAGGCGAAAGUCACACAAACCGG | 0.0201
7 | GUGCCUUGCGCCGGGAAACCACGCAAGGGAUGGUGUCAAAUUCGGCGAAACCUAAGCGCCCGCCCGGGCGUAUGGCAACGCAGAGCCAAGCUUCGGCGCCUGCGCCGAUGUAGGUGUAGGGACUAGACGGCACCCACCUAAGGCAAACGCUAUGGUGAAGGCAUAGUCCAGGGAGAGGCGAAAGUCACACAAACCGG | 0.0127
8 | GUGCCUUGCGCCGGGAAACCACGCAAGGGAUGGUGUCAAAUUCGGCGAAACCUAAGCGCCCGCCCGGGCGUAUGGCAACGCAGAGCCAAGCUUCGGCGCCUGCGCCGAUGUAGGUGUAGGGACUAGACGGCACCCACCUAAGGCAAACGCUAUGGUGAAGGCAUAGUCCAGGGAGCGGCGAAAGUCACACAAACCGG | 0.0189
9 | GUGCCUUGCGCCGGGAAACCACGCAAGGGAUGGUGUCAAAUUCGGCGAAACCUAAGCGCCCGCCCGGGCGUAUGGCAACGCAGAGCCAAGCUUCGGCGCCUGCGCCGAUGUAGGUGUAGGGACUAGACGGCACCCACCUAAGGCAAACGUUAUGGUGAAGGCAUAGUCUAGGGAGUGGCGAAAGUCACACAAACCGG | 0.00932
10 | GUGCCUUGCGCCGGGAAACCACGCAAGGGAUGGUGUCAAAUUCGGCGAAACCUAAGCGCCCGCCCGGGCGUAUGGCAACGCAGAGCCAAGCUUCGGCGCCUGCGCCGAUGUAGGUGUAGGGACUAGACGGCACCCACCUAAGGCAAACGUUAUGGUGAAGGCAUAGUCGAGGGAGUGGCGAAAGUCACACAAACCGG | 0.0105
11 | GUGCCUUGCGCCGGGAAACCACGCAAGGGAUGGUGUCAAAUUCGGCGAAACCUAAGCGCCCGCCCGGGCGUAUGGCAACGCAGAGCCAAGCUUCGGCGCCUGCGCCGAUGUAGGUGUAGGGACUAGACGGCACCCACCUAAGGCAAACGUUAUGGUGAAGGCAUAGUCAAGGGAGUGGCGAAAGUCACACAAACCGG | 0.0106
12 | GUGCCUUGCGCCGGGAAACCACGCAAGGGAUGGUGUCAAAUUCGGCGAAACCUAAGCGCCCGCCCGGGCGUAUGGCAACGCAGAGCCAAGCUUCGGCGCCUGCGCCGAUGUAGGUGUAGGGACUAGACGGCACCCACCUAAGGCAAACGUUAUGGUGAAGGCAUAGUCCAGGGAGUGGCGAAAGUCACACAAACCGG | 0.0133
13 | GUGCCUUGCGCCGGGAAACCACGCAAGGGAUGGUGUCAAAUUCGGCGAAACCUAAGCGCCCGCCCGGGCGUAUGGCAACGCAGAGCCAAGCUUCGGCGCCUGCGCCGAUGUAGGUGUAGGGACUAGACGGCACCCACCUAAGGCAAACGCUAUGGUGAAGGCAUAGUCGAGGGAGCGGCGAAAGUCACACAAACCGG | 0.0234
14 | GUGCCUUGCGCCGGGAAACCACGCAAGGGAUGGUGUCAAAUUCGGCGAAACCUAAGCGCCCGCCCGGGCGUAUGGCAACGCAGAGCCAAGCUUCGGCGCCUGCGCCGAUGUAGGUGUAGGGACUAGACGGCACCCACCUAAGGCAAACGCUAUGGUGAAGGCAUAGUCGAGGGAGAGGCGAAAGUCACACAAACCGG | 0.0219
15 | GUGCCUUGCGCCGGGAAACCACGCAAGGGAUGGUGUCAAAUUCGGCGAAACCUAAGCGCCCGCCCGGGCGUAUGGCAACGCAGAGCCAAGCUUCGGCGCCUGCGCCGAUGUAGGUGUAGGGACUAGACGGCACCCACCUAAGGCAAACGCUAUGGUGAAGGCAUAGUCGAGGGAGGGGCGAAAGUCACACAAACCGG | 0.00439
16 | GUGCCUUGCGCCGGGAAACCACGCAAGGGAUGGUGUCAAAUUCGGCGAAACCUAAGCGCCCGCCCGGGCGUAUGGCAACGCAGAGCCAAGCUUCGGCGCCUGCGCCGAUGUAGGUGUAGGGACUAGACGGCACCCACCUAAGGCAAACGUUAUGGUGAAGGCAUAGUCAAGGGAGCGGCGAAAGUCACACAAACCGG | 0.0163
17 | GUGCCUUGCGCCGGGAAACCACGCAAGGGAUGGUGUCAAAUUCGGCGAAACCUAAGCGCCCGCCCGGGCGUAUGGCAACGCAGAGCCAAGCUUCGGCGCCUGCGCCGAUGUAGGUGUAGGGACUAGACGGCACCCACCUAAGGCAAACGUUAUGGUGAAGGCAUAGUCAAGGGAGAGGCGAAAGUCACACAAACCGG | 0.0156
18 | GUGCCUUGCGCCGGGAAACCACGCAAGGGAUGGUGUCAAAUUCGGCGAAACCUAAGCGCCCGCCCGGGCGUAUGGCAACGCAGAGCCAAGCUUCGGCGCCUGCGCCGAUGUAGGUGUAGGGACUAGACGGCACCCACCUAAGGCAAACGUUAUGGUGAAGGCAUAGUCAAGGGAGGGGCGAAAGUCACACAAACCGG | 0.00525
19 | GUGCCUUGCGCCGGGAAACCACGCAAGGGAUGGUGUCAAAUUCGGCGAAACCUAAGCGCCCGCCCGGGCGUAUGGCAACGCAGAGCCAAGCUUCGGCGCCUGCGCCGAUGUAGGUGUAGGGACUAGACGGCACCCACCUAAGGCAAACGUUAUGGUGAAGGCAUAGUCCAGGGAGGGGCGAAAGUCACACAAACCGG | 0.00825
20 | GUGCCUUGCGCCGGGAAACCACGCAAGGGAUGGUGUCAAAUUCGGCGAAACCUAAGCGCCCGCCCGGGCGUAUGGCAACGCAGAGCCAAGCUUCGGCGCCUGCGCCGAUGUAGGUGUAGGGACUAGACGGCACCCACCUAAGGCAAACGUUAUGGUGAAGGCAUAGUCCAGGGAGCGGCGAAAGUCACACAAACCGG | 0.0178
21 | GUGCCUUGCGCCGGGAAACCACGCAAGGGAUGGUGUCAAAUUCGGCGAAACCUAAGCGCCCGCCCGGGCGUAUGGCAACGCAGAGCCAAGCUUCGGCGCCUGCGCCGAUGUAGGUGUAGGGACUAGACGGCACCCACCUAAGGCAAACGUUAUGGUGAAGGCAUAGUCCAGGGAGAGGCGAAAGUCACACAAACCGG | 0.0109
22 | GUGCCUUGCGCCGGGAAACCACGCAAGGGAUGGUGUCAAAUUCGGCGAAACCUAAGCGCCCGCCCGGGCGUAUGGCAACGCAGAGCCAAGCUUCGGCGCCUGCGCCGAUGUAGGUGUAGGGACUAGACGGCACCCACCUAAGGCAAACGCUAUGGUGAAGGCAUAGUCAAGGGAGCGGCGAAAGUCACACAAACCGG | 0.0218
23 | GUGCCUUGCGCCGGGAAACCACGCAAGGGAUGGUGUCAAAUUCGGCGAAACCUAAGCGCCCGCCCGGGCGUAUGGCAACGCAGAGCCAAGCUUCGGCGCCUGCGCCGAUGUAGGUGUAGGGACUAGACGGCACCCACCUAAGGCAAACGCUAUGGUGAAGGCAUAGUCAAGGGAGAGGCGAAAGUCACACAAACCGG | 0.0188
24 | GUGCCUUGCGCCGGGAAACCACGCAAGGGAUGGUGUCAAAUUCGGCGAAACCUAAGCGCCCGCCCGGGCGUAUGGCAACGCAGAGCCAAGCUUCGGCGCCUGCGCCGAUGUAGGUGUAGGGACUAGACGGCACCCACCUAAGGCAAACGCUAUGGUGAAGGCAUAGUCAAGGGAGGGGCGAAAGUCACACAAACCGG | 0.00506
25 | GUGCCUUGCGCCGGGAAACCACGCAAGGGAUGGUGUCAAAUUCGGCGAAACCUAAGCGCCCGCCCGGGCGUAUGGCAACGCAGAGCCAAGCUUCGGCGCCUGCGCCGAUGUAGGUGUAGGGACUAGACGGCACCCACCUAAGGCAAACGUUAUGGUGAAGGCAUAGUCUAGGGAGGGGCGAAAGUCACACAAACCGG | 0.00708
26 | GUGCCUUGCGCCGGGAAACCACGCAAGGGAUGGUGUCAAAUUCGGCGAAACCUAAGCGCCCGCCCGGGCGUAUGGCAACGCAGAGCCAAGCUUCGGCGCCUGCGCCGAUGUAGGUGUAGGGACUAGACGGCACCCACCUAAGGCAAACGUUAUGGUGAAGGCAUAGUCUAGGGAGAGGCGAAAGUCACACAAACCGG | 0.0197
27 | GUGCCUUGCGCCGGGAAACCACGCAAGGGAUGGUGUCAAAUUCGGCGAAACCUAAGCGCCCGCCCGGGCGUAUGGCAACGCAGAGCCAAGCUUCGGCGCCUGCGCCGAUGUAGGUGUAGGGACUAGACGGCACCCACCUAAGGCAAACGUUAUGGUGAAGGCAUAGUCUAGGGAGCGGCGAAAGUCACACAAACCGG | 0.0177
28 | GUGCCUUGCGCCGGGAAACCACGCAAGGGAUGGUGUCAAAUUCGGCGAAACCUAAGCGCCCGCCCGGGCGUAUGGCAACGCAGAGCCAAGCUUCGGCGCCUGCGCCGAUGUAGGUGUAGGGACUAGACGGCACCCACCUAAGGCAAACGCUAUGGUGAAGGCAUAGUCGAGGGAGUGGCGAAAGUCACACAAACCGG | 0.0106
29 | GUGCCUUGCGCCGGGAAACCACGCAAGGGAUGGUGUCAAAUUCGGCGAAACCUAAGCGCCCGCCCGGGCGUAUGGCAACGCAGAGCCAAGCUUCGGCGCCUGCGCCGAUGUAGGUGUAGGGACUAGACGGCACCCACCUAAGGCAAACGCUAUGGUGAAGGCAUAGUCAAGGGAGUGGCGAAAGUCACACAAACCGG | 0.0102
30 | GUGCCUUGCGCCGGGAAACCACGCAAGGGAUGGUGUCAAAUUCGGCGAAACCUAAGCGCCCGCCCGGGCGUAUGGCAACGCAGAGCCAAGCUUCGGCGCCUGCGCCGAUGUAGGUGUAGGGACUAGACGGCACCCACCUAAGGCAAACGCUAUGGUGAAGGCAUAGUCUAGGGAGUGGCGAAAGUCACACAAACCGG | 0.00987
